Laboratory results as given in PMC8809517, “Cofactor-independent RNA editing by a synthetic S-type PPR protein”.

What was measured:
Assay in all cases: high-throughput RNA pulldown from lysate on Ni-NTA beads; HRP: 50 mM Tris pH 8, 150 mM NaCl, 1 mM beta-mercaptoethanol, 50 ug/ml BSA, 3 ug/ml yeast RNA, 0.5% heparin; ITC and FP: Tris pH 8, 200 mM KCl, 5% glycerol; MST: 50 mM Tris pH 8, 200 mM NaCl, 1 mM DTT, BSA, heparin, 0.05% Tween 20
Settings in all cases: tags: N-terminal His-eGFP
[1] = target: T1, GFP-9S library array, motif 4 ND N98I;D124E (synthetic construct, N98I;D124E)
T1 chain: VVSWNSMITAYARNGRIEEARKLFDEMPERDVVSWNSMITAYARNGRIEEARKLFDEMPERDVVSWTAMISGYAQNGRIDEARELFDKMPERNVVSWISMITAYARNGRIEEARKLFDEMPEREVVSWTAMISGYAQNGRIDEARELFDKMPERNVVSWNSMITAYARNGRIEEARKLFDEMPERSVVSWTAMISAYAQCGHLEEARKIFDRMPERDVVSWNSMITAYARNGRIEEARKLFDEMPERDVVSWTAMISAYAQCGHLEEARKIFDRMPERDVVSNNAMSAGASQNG

[2] = target: T2, GFP-9S library array, motif 4 ND N98T;D124N (synthetic construct, N98T;D124N)
T2 chain: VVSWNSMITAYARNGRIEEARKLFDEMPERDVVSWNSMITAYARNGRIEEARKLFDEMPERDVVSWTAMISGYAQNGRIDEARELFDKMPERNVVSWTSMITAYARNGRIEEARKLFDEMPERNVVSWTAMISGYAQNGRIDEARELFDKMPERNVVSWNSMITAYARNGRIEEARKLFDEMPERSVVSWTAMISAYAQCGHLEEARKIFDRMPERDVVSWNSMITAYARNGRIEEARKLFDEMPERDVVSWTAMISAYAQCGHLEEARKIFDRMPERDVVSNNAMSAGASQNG

[3] = target: T3, GFP-9S library array, motif 4 ND N98S;D124M (synthetic construct, N98S;D124M)
T3 chain: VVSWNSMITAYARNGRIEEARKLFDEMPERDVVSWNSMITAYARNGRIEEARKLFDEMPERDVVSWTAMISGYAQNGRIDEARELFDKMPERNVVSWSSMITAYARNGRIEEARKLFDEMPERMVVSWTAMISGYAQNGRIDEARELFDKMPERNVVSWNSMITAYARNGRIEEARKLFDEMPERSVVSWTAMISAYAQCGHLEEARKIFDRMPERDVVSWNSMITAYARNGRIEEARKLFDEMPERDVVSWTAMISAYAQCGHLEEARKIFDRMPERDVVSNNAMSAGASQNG

[4] = target: T4, GFP-9S library array, motif 4 ND N98C;D124H (synthetic construct, N98C;D124H)
T4 chain: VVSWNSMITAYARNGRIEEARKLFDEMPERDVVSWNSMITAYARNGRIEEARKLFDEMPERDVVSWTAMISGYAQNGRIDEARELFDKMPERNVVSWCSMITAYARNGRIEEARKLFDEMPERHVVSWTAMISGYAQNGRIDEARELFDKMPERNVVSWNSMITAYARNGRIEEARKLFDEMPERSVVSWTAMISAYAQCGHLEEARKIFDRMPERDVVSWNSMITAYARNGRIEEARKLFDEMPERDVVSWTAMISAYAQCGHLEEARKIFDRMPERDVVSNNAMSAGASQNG

[5] = target: T5, GFP-9S library array, motif 4 ND N98Y;D124K (synthetic construct, N98Y;D124K)
T5 chain: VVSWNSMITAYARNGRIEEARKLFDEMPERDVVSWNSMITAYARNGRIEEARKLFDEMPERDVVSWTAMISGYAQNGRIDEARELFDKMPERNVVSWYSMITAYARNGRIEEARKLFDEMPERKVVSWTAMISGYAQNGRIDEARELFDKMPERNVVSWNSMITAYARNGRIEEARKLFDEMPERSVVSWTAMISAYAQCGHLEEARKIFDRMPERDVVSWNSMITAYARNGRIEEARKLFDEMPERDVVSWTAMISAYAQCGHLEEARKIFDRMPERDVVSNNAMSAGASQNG

B1: Cy5-rpoA (ssRNA)
RNA: AUUACACGUGA
- Kd ([1]; label: 5' Cy5): 97.2 nM
- Kd ([2]; label: 5' Cy5): 59.8 nM
- Kd ([3]; label: 5' Cy5): 120 nM
- Kd ([4]; label: 5' Cy5): 124 nM
- Kd ([5]; label: 5' Cy5): 93.3 nM

B2: Cy5-rpoA-G (ssRNA)
RNA: AUUAGACGUGA
- Kd ([1]; label: 5' Cy5): 78.6 nM
- Kd ([2]; label: 5' Cy5): 59 nM
- Kd ([3]; label: 5' Cy5): 183 nM
- Kd ([4]; label: 5' Cy5): 57.7 nM
- Kd ([5]; label: 5' Cy5): 97 nM

B3: IR-rpoA-A (ssRNA)
RNA: AUUAAACGUGA
- Kd ([1]; label: 5' IRDye 800CW): 48.6 nM
- Kd ([2]; label: 5' IRDye 800CW): 8.35 nM
- Kd ([3]; label: 5' IRDye 800CW): 369 nM
- Kd ([4]; label: 5' IRDye 800CW): 25.4 nM
- Kd ([5]; label: 5' IRDye 800CW): 207 nM

B4: IR-rpoA-U (ssRNA)
RNA: AUUAUACGUGA
- Kd ([1]; label: 5' IRDye 800CW): 43.1 nM
- Kd ([2]; label: 5' IRDye 800CW): 53.3 nM
- Kd ([3]; label: 5' IRDye 800CW): 160 nM
- Kd ([4]; label: 5' IRDye 800CW): 152 nM
- Kd ([5]; label: 5' IRDye 800CW): 227 nM
